How the values were obtained:
Grb2 SH2 = Grb2 SH2 (UniProt P62993); assay: SH2 binding enrichment of the phosphorylated peptide, bacterial display (enrichment ratio); higher = better substrate or ligand; peptides without Tyr show the background
c-Src SH2 = assay: as above
SHP2-C SH2 = assay: as above
EPHB2 = EPHB2 (UniProt P29323); assay: phosphorylation enrichment, bacterial display (enrichment ratio); higher = better substrate or ligand; peptides without Tyr show the background
EPHB1 = EPHB1 (UniProt P54762); assay: as above
FGFR3 = FGFR3 (UniProt P22607); assay: as above
MERTK = MERTK (UniProt Q12866); assay: as above
c-Src = assay: as above
c-Abl (mouse) = assay: as above
Hck = Hck (UniProt P08631); assay: as above
Jak2 = Jak2 (UniProt O60674); assay: as above
Fes = Fes (UniProt P07332); assay: as above
Fyn = Fyn (UniProt P06241); assay: as above
Fer (mouse) = assay: as above
AncSZ = assay: as above
FGFR1 = FGFR1 (UniProt P11362); assay: as above
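Throughout, for SH2 binding enrichment of the phosphorylated peptide, bacterial display: peptide library displayed on the E. coli surface as eCPX fusions, selected cells deep-sequenced, score is each peptide's frequency after selection divided by its frequency in the input.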
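Throughout, for phosphorylation enrichment, bacterial display: 11-residue human phosphosite peptides and single-mutation variants displayed on the E. coli surface, counted by deep sequencing, each peptide's frequency after selection divided by its frequency in the unselected input library; frequency after pTyr selection over input frequency; kinase dosed for 20-30% of maximal phosphorylation in three min.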

EPHB2, sequence (P29323 whole entry, looked up): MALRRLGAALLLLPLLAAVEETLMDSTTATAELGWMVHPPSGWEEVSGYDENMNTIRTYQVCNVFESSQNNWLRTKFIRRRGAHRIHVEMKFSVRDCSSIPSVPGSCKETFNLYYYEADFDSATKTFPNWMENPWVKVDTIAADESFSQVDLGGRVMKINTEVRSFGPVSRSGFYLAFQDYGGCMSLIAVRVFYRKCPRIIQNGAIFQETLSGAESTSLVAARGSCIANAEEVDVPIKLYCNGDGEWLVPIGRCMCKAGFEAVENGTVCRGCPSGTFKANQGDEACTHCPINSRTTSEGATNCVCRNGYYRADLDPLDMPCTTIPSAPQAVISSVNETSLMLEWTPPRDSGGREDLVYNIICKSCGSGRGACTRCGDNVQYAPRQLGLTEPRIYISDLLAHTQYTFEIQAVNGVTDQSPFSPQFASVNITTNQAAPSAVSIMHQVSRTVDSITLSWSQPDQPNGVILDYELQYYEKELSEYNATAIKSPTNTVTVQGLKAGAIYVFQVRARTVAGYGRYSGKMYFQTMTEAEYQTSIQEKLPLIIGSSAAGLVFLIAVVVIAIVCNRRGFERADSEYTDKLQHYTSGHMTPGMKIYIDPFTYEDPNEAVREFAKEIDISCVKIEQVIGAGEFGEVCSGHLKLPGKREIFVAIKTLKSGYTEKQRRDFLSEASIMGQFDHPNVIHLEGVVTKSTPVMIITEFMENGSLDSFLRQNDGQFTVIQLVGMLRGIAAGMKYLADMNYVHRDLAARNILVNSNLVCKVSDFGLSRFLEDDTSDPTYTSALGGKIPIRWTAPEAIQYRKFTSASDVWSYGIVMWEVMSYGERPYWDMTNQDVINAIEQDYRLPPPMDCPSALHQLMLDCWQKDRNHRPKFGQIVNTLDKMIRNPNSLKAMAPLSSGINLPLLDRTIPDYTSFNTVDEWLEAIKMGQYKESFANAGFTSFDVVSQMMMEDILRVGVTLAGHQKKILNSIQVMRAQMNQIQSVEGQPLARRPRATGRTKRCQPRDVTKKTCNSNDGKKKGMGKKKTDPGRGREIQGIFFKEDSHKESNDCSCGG
Jak2, sequence (O60674 whole entry, looked up): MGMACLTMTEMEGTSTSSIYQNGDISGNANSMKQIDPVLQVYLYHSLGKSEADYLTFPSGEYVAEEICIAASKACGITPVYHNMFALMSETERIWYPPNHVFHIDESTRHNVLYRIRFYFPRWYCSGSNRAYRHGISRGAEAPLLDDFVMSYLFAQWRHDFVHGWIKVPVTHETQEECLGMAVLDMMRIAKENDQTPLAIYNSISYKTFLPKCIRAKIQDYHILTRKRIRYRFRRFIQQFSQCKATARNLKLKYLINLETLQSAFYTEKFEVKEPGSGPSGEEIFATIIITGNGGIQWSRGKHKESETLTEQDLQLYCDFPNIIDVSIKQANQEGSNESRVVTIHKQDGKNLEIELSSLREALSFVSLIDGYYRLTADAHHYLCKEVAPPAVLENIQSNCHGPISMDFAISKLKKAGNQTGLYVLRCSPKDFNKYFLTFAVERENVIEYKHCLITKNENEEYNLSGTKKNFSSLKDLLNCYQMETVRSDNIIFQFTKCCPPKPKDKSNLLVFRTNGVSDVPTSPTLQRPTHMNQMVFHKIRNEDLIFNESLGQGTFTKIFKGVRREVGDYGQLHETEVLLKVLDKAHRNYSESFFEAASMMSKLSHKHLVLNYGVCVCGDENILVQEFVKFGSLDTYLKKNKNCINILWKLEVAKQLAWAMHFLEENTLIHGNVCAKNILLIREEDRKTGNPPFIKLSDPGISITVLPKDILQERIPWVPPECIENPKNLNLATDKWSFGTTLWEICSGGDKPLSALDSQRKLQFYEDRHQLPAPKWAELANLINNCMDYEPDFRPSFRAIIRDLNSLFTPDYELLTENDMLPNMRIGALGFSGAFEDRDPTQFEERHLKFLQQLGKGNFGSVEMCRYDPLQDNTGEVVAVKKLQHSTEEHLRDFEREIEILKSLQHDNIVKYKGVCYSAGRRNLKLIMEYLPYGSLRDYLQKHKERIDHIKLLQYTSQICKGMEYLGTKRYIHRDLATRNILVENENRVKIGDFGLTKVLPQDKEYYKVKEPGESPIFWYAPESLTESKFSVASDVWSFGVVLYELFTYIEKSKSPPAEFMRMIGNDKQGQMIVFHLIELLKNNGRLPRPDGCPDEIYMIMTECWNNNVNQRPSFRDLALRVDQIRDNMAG
FGFR1, sequence (P11362 whole entry, looked up, the tested form may be a part): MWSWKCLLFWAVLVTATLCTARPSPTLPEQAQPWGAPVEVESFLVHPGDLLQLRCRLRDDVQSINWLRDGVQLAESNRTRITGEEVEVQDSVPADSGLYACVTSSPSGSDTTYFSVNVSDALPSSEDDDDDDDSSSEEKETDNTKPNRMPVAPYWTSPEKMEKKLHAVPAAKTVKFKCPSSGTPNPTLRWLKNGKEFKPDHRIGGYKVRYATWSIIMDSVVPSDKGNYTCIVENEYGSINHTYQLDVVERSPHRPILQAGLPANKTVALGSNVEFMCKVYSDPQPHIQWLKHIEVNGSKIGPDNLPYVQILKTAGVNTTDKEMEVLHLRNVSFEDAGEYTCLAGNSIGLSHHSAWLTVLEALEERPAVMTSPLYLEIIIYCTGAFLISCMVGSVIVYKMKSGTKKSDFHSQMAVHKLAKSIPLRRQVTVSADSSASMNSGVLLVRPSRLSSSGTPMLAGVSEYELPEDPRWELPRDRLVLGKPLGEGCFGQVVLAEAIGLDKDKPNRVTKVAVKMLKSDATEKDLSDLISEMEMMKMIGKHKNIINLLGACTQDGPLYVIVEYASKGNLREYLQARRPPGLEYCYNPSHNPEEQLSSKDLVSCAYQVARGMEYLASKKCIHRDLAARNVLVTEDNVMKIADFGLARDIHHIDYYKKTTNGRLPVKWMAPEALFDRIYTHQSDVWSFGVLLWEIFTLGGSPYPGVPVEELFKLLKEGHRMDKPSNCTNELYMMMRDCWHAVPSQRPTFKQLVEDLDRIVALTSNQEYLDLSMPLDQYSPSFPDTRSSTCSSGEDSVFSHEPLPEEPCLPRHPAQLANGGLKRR
EPHB1, sequence (P54762 whole entry, looked up): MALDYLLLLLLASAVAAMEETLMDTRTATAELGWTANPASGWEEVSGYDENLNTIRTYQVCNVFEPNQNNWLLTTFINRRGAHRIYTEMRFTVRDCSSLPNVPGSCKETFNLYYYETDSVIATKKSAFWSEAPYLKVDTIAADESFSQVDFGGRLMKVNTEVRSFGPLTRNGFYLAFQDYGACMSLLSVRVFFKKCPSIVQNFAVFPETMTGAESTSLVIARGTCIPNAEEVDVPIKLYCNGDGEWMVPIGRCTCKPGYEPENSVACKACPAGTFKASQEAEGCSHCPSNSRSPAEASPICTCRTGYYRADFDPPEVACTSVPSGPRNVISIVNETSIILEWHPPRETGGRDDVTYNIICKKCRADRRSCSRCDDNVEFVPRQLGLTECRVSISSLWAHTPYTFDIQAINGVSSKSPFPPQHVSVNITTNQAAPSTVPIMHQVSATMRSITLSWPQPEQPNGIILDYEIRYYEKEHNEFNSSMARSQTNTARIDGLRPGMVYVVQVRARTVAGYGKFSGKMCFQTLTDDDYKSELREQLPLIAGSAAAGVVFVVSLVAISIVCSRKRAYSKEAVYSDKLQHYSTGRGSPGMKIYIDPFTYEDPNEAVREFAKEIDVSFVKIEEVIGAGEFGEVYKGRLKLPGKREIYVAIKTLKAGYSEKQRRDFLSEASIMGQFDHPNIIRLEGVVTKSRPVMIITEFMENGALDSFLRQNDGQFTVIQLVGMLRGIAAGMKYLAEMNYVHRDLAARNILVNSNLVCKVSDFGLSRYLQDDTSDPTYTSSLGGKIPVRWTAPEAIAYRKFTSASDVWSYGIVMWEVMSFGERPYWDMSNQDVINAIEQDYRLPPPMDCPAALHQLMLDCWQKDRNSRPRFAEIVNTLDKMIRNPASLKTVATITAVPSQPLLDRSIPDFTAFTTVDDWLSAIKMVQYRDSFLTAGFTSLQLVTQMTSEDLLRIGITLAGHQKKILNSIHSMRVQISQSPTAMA
Fes, sequence (P07332 whole entry, looked up): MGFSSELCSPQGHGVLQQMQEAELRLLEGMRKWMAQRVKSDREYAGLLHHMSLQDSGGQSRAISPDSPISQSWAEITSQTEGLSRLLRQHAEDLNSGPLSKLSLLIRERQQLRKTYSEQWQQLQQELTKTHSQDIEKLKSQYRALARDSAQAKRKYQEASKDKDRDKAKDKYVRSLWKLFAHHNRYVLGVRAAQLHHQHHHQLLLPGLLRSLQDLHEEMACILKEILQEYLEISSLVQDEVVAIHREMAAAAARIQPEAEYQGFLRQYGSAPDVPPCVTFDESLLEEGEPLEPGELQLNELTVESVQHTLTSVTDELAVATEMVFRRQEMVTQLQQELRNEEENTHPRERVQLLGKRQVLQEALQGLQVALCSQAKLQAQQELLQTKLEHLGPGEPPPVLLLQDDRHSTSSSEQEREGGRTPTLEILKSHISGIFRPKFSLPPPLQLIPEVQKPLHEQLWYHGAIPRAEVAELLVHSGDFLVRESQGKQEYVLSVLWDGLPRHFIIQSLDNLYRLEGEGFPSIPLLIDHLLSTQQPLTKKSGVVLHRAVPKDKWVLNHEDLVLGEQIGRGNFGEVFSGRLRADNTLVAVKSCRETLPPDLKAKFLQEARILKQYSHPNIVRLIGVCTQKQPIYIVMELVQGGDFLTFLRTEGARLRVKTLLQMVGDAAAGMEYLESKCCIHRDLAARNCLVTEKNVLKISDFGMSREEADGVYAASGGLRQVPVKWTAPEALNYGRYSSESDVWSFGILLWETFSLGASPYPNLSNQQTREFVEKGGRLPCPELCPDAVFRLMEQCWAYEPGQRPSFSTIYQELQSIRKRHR

| SH2 binding enrichment (Grb2 SH2) | SH2 binding enrichment (c-Src SH2) | SH2 binding enrichment (SHP2-C SH2) | Sequence | phosphorylation enrichment (EPHB2) | phosphorylation enrichment (EPHB1) | phosphorylation enrichment (FGFR3) | phosphorylation enrichment (MERTK) | phosphorylation enrichment (c-Src) | phosphorylation enrichment (c-Abl (mouse)) | phosphorylation enrichment (Hck) | phosphorylation enrichment (Jak2) | phosphorylation enrichment (Fes) | phosphorylation enrichment (Fyn) | phosphorylation enrichment (Fer (mouse)) | phosphorylation enrichment (AncSZ) | phosphorylation enrichment (FGFR1) |
| --- | --- | --- | --- | --- | --- | --- | --- | --- | --- | --- | --- | --- | --- | --- | --- | --- |
| 1.11 | 0.503 | 0.379 | EVTRLYGSVCD [TC2N_Y154_K151T] | 0.586 | 0.708 | 0.783 | 0.727 | 2.77 | 0.895 | 2.02 | 1.27 | 1.29 | 3.63 | 0.982 | 1.18 | 0.557 |
| 0.936 | 0.695 | 1.06 | FADIAYIYRHG [PAH_Y166_N167I] | 0.497 | 0.506 | 0.583 | 0.416 | 0.638 | 0.685 | 0.445 | 1.02 | 0.978 | 0.432 | 0.486 | 0.842 | 0.616 |
| 0.751 | 0.477 | 0.654 | FADIAYNYHHG [PAH_Y166_R169H] | 0.385 | 0.387 | 0.525 | 0.462 | 0.638 | 0.415 | 0.494 | 0.567 | 0.803 | 0.469 | 0.443 | 0.643 | 0.433 |
| 0.914 | 0.583 | 0.85 | FAREGYSALPQ [SARS2_Y52_YF] | 0.466 | 0.426 | 0.446 | 0.502 | 0.43 | 0.564 | 0.524 | 0.652 | 0.666 | 0.421 | 0.441 | 0.603 | 0.471 |

More lines, now with the values behind:

| Sequence | SH2 binding enrichment (Grb2 SH2) | SH2 binding enrichment (c-Src SH2) | SH2 binding enrichment (SHP2-C SH2) | phosphorylation enrichment (EPHB2) | phosphorylation enrichment (EPHB1) | phosphorylation enrichment (FGFR3) | phosphorylation enrichment (MERTK) | phosphorylation enrichment (c-Src) | phosphorylation enrichment (c-Abl (mouse)) | phosphorylation enrichment (Hck) | phosphorylation enrichment (Jak2) | phosphorylation enrichment (Fes) | phosphorylation enrichment (Fyn) | phosphorylation enrichment (Fer (mouse)) | phosphorylation enrichment (AncSZ) | phosphorylation enrichment (FGFR1) |
| --- | --- | --- | --- | --- | --- | --- | --- | --- | --- | --- | --- | --- | --- | --- | --- | --- |
| EVASVYQSYQP [MAVS_Y92] | 0.753 | 0.609 | 0.8 | 0.622 | 0.54 | 0.568 | 0.569 | 7.09 | 1.14 | 7.42 | 0.661 | 0.802 | 9.7 | 2.7 | 0.864 | 0.518 |
| EWKQKYEESQS [MYH6_Y1462] | 0.897 | 0.545 | 0.672 | 0.616 | 0.525 | 0.65 | 0.357 | 0.395 | 0.706 | 0.528 | 1.04 | 1.08 | 0.49 | 0.44 | 1.02 | 0.499 |
| FAKTQYPDIYA [CRX_Y63_V66I] | 0.881 | 0.533 | 1 | 0.427 | 0.355 | 0.668 | 0.396 | 0.572 | 0.526 | 0.709 | 0.563 | 0.693 | 0.519 | 0.359 | 0.518 | 0.449 |
| FASVEYQEALS [GALNS_Y461_A459V] | 0.917 | 0.576 | 0.723 | 0.588 | 0.621 | 0.631 | 0.416 | 0.442 | 0.738 | 0.471 | 0.876 | 0.997 | 0.615 | 0.47 | 1.01 | 0.484 |
| FCIDHYLGKEM [G6PD_Y202_R198C_YF] | 0.836 | 0.735 | 0.969 | 0.505 | 0.581 | 0.569 | 0.375 | 0.394 | 0.49 | 0.43 | 0.63 | 0.901 | 0.657 | 0.633 | 0.725 | 0.397 |

— the supplement of paper PMC10065799, “High-throughput profiling of sequence recognition by tyrosine kinases and SH2 domains using bacterial peptide display” (eLife, 2023)
